Measurements reported in the supplement of paper PMC10567573.

B1: TBX5 (parent)
chain: YQNHKITQLKIENNPFAKGFRGSD
B2: MNAT1 (parent)
chain: LAPIHKLEEALYEYQPLQIETYGP

Variants of: B1
Experiment: protein stability index of a GFP-peptide fusion (GPS, HEK-293T) (PSI 1-6); higher = more stable
Details: c terminus: a fixed tail appended
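Further: lentivirally expressed fusions sorted by FACS into six bins by GFP to DsRed ratio, PSI derived from sequencing read proportions per bin multiplied by bin number.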

Protein stability index of substitutions, site by site:
G19: C 1.74, T 2.53, I 1.85, R 2.22, L 2.05, M 2.29, N 2.19, W 1.88, V 2.31, P 2.85, A 2.75, E 3.99, Y 2.36, F 2.16, S 2.76, Q 3.1, K 2.59, D 2.7, H 2.55
G22: R 2.12, H 2.46, W 1.76, T 2.67, N 2.4, M 2.49, Y 2.63, D 2.56, V 2.32, F 1.74, P 3.32, C 2.24, S 2.57, K 2.49, A 2.37, L 2.02, I 2.48, E 2.33, Q 2.83
S23: W 2.02, T 2.3, H 2.47, P 2.55, E 2.42, I 2.12, A 2.25, Y 2.55, G 2.59, K 2.64, D 2.83, C 2.49, L 2.11, F 1.92, Q 2.71, V 2.35, N 2.39, R 2.63, M 2.18
F20: K 3.11, P 2.88, I 2.47, E 3.56, T 3.04, Q 3.19, A 3.41, H 3.27, R 3.02, V 2.63, W 2.73, C 2.85, N 3.28, S 3.23, L 2.79, Y 2.49, D 3.41, M 2.69, G 2.98
A17: C 2.22, L 2.34, T 2.43, F 1.95, Y 2.18, H 2.54, D 2.73, S 2.01, N 2.21, M 2.5, K 2.73, Q 2.54, W 1.98, I 2.09, G 2.27, P 2.77, E 3.12, V 2.73, R 2.12
D24: I 2.08, R 2.69, K 2.53, H 1.99, Q 1.88, G 2.39, M 2.43, C 2.25, A 2.43, T 2.11, N 2.57, F 1.95, L 1.95, V 1.83, S 2.14, W 1.32, P 2.39, E 2.64, Y 2.04
F16: L 2.51, W 1.93, D 3.52, V 2.73, G 2.83, S 3.56, A 3.12, M 2.98, I 3, Y 2.46, H 3.54, P 3.93, Q 3.44, C 3.17, E 3.64, R 3.16, N 3.48, T 3.47, K 3.31
N14: Y 1.89, A 2.61, S 2.16, H 2.36, T 2.61, C 1.58, E 2.95, V 2.27, W 1.59, K 2.75, P 2.52, L 2.52, I 2.41, R 2.58, G 2.46, D 2.84, Q 2.94, F 2.34, M 2.05
R21: K 2.64, H 2.52, S 2.76, G 2.46, E 2.58, T 2.44, N 2.61, M 2.55, P 2.74, A 2.32, Y 2.96, V 2.51, Q 2.57, W 1.8, I 2.19, D 2.95, C 2.34, L 2.15, F 2.89
K18: Y 2.12, Q 2.37, T 1.67, V 2.07, C 1.36, A 2.24, W 1.63, L 2.06, H 2.09, P 2.54, D 2.16, N 2.23, I 2.49, E 3.08, M 2.06, R 2.77, G 1.81, F 1.7, S 2.31
K10: S 2.79, T 2.74, W 1.95, P 3.2, Q 2.5, Y 2.17, R 2.58, V 2.02
E12: K 1.84, D 2.94, H 2.3, A 2.32, F 1.7, N 2.51, P 2.63, G 2.01, V 1.91, L 2.17, R 1.98, S 2.11, I 1.81, M 2.35, W 1.49, Q 2.22, T 2.75, Y 1.69, C 1.73
I11: N 2.59, W 2.34, V 2.58, R 2.71, K 2.52, L 2.62, G 2.47, H 2.33, P 2.71, M 2.64, F 2.25, A 2.36, D 3.27, C 2.48, E 3.23, T 2.71, Y 2.83, Q 2.58, S 2.96
N13: F 1.94, A 2.17, S 2.37, I 1.51, T 2.25, E 2.36, M 2.29, G 1.81, C 2.31, R 2.46, L 1.67, D 2.48, H 2.15, V 1.81, W 2.09, P 2.25, Y 1.77, K 2.34, Q 2.55
P15: D 3.34, L 2.08, I 2.04, Q 2.32, T 2.82, K 2.33, E 2.69, C 2.34, R 2.35, M 2.65, S 2.7, N 2.7, G 2.37, Y 2.34, A 2.52, V 2.38, W 1.87, F 1.96, H 2.35

Variants of: B2
Experiment: as above
Details: c terminus: a fixed tail appended

Protein stability index of substitutions, site by site:
I4: C 2.49, A 2.95, E 2.78, D 2.78
P3: V 2.7, F 2.67, K 2.04, H 1.87, W 1.44, A 2.23, C 1.53, G 2.02, M 2.48, E 1.97, I 2.72, L 2.95, R 2.1, S 2.12, Y 2.18, D 1.46, N 1.32, T 2.32, Q 1.67
L1: D 2.31, M 1.87, A 2.28, H 1.67, C 1.25, E 2.52, W 2.56, Y 2.12, Q 2.47, V 2.31, S 2.62, N 2.79, G 1.98, K 2.33, P 2.3, T 2.33, I 1.94, R 2.5
A2: R 1.62, M 1.63, I 1.91, H 2.21, D 1.77, S 2.29, Q 2.07, W 2.44, K 1.92, C 1.68, G 1.45, N 2.23, F 3.4, Y 1.9, L 2.93, P 2.3, E 2.47, T 2.63, V 2.54
